Data taken from US20050119163A1.

Molecular target: Biotinylated Grb2 SH2 domain protein (UniProt P62993)
Assay: SPR (Biacore S51), b-Grb2 amine-coupled on CM5 chip, compound in solution

Chain of Biotinylated Grb2 SH2 domain protein (P62993 60-152 limits assumed): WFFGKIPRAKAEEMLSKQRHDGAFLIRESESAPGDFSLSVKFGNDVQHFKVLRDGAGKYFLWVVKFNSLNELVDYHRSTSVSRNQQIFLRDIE

Kd: 1.67 nM
Substance: Compound 6, tri-sodium salt of compound 5: 2-{(9S,10S,14R,18S)-7,16,19-Triaza-18-(carbamoylmethyl)-14-[(5-methyl indolyl)methyl]-8,17,20-trioxo-10-[4-(phosphonomethyl)phenyl]spiro[5.14]icos-11-en-9-yl}acetic acid (peptide)
